Laboratory results taken from the supplement of paper PMC9732359.
± gives the uncertainty stated by the source.

Assay: protein stability index of a GFP-peptide fusion (yeast GPS) (PSI 1-4); higher = more stable; sorted into four equal gates, so the index is relative within each strain
Conditions: doa10∆
In short: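 Plasmids isolated from each sorting gate were PCR-amplified and Illumina-sequenced, and barcodes assigned the reads to strains. The gates, four of equal size, were set by GFP/Cherry fluorescence ratio on mid-log cultures in leucine-free medium. These cultures were yeast carrying a pooled library of tiled 17-residue yeast protein peptides fused downstream of GFP on a plasmid that also expresses Cherry. The protein stability index is the sum of every gate's read frequency times its gate number.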

Going from NTQPSASGFGFGGSQPN [YGR119C/NUP57] to NTTVISDKQRRLLAKDA [DIS3], the protein stability index falls from 3.18 ± 0.18 to 2.37 ± 0.051.

For NVDKNLNEIKEHKIVVL [RPN14], the protein stability index was 2.39 ± 0.085.

Same assay, conditions: pdr5∆

First: NKITNQGVTCLHLAVGK [NAS6]
Second: NKKSEENEMIKPMNKGQ [SWP82]
The protein stability index of the first is lower: 1.83 ± 0.057 for the first, 3.41 ± 0.095 for the second.

Going from NKLGNDPSLNLKLLAKS [BRR2] to NKLGNKRLTEDERIEKE [CDC53], the protein stability index rises from 2.56 ± 0.079 to 3.13 ± 0.095.

Going from NKLTILGRDYPIEVDEE [IRR1] to NKQIEILTDLVNYRHFK [ITC1], the protein stability index rises from 2.56 ± 0.12 to 2.99 ± 0.036.

NKSRSSGHFSTDSRTGQ [CDC53] and NKYANNDFANNLPKEGD [CSL4] are within error of each other in protein stability index: 3.05 ± 0.052 for the first, 3 ± 0.056 for the second.

Going from NKYPELLGKDNEDDALI [AAR2] to NLATWYHSAGGRDKHAL [SSN3], the protein stability index rises from 3.19 ± 0.089 to 3.54 ± 0.15.

NLEESSKLDIYTQQQAL [RET1] and NLEIPAYEFDGDKVIVG [RIP1] are within error of each other in protein stability index: 2.77 ± 0.078 for the first, 2.61 ± 0.093 for the second.

Going from NLENHFKKSKIDHINEE [SCL1] to NLETLVTTKDDLSGADI [RPT2], the protein stability index rises from 3.16 ± 0.075 to 3.34 ± 0.085.

Compared with NLGSNVRNSFPLDEIPV [REC8], NLGSRTKNNTQASGITA [SSN3] is lower in protein stability index: 2.98 ± 0.13 for the first, 2.38 ± 0.045 for the second.

Compared with NLINLSIGASIADLASL [YCS4], NLKLISVSLVDEFPSEL [SIR4] is higher in protein stability index: 2.44 ± 0.052 for the first, 2.6 ± 0.052 for the second.

First: NLLESITKLLEINLSKI [YCS4]
Second: NLLLRELNVEKLNTFNL [SRP72]
The protein stability index of the first is lower: 2.55 ± 0.043 for the first, 3.41 ± 0.2 for the second.

First: NLLSKRNQEKKMEKKKS [SNM1]
Second: NLNELESQLQMDRTSLR [SMC3]
The protein stability index of the first is higher: 3.38 ± 0.28 for the first, 2.59 ± 0.16 for the second.

NLNRAFNGDQVIVELLP [DIS3] and NLSEARLVIKEALVERR [RPB4] are within error of each other in protein stability index: 2.92 ± 0.18 for the first, 2.75 ± 0.13 for the second.

Compared with NLSIDEVAVPDRVAKVL [RPO31], NLTAGIIVAGYDDKNKG [PRE3] is lower in protein stability index: 3.05 ± 0.073 for the first, 2.75 ± 0.096 for the second.

First: NNAKLLTFMTCNSLHIP [ESC2]
Second: NNDADKGRSYAYFMVGA [RIP1]
The protein stability index of the first is lower: 1.72 ± 0.052 for the first, 3.32 ± 0.1 for the second.

NNEKVVQYLRSVQDLGG [YML031W/NDC1] and NNLFRIIAELSFLKVDP [YJL039C/NUP192] are within error of each other in protein stability index: 3.04 ± 0.27 for the first, 3.02 ± 0.12 for the second.

First: NNMNVNMNLNPQMFLNQ [GAL11]
Second: NNNHKDKKLLRRLLNLY [SWI1]
The protein stability index of the first is lower: 2.56 ± 0.046 for the first, 2.93 ± 0.054 for the second.

First: NNNNTNTQPSASGFGFG [YGR119C/NUP57]
Second: NNNNTTTTTTTTNNNNT [SWI1]
The protein stability index of the first is lower: 2.28 ± 0.059 for the first, 2.68 ± 0.032 for the second.

Compared with NNSNTVASSTNFTSPTA [SWI1], NNSSSGMNNASAGLFGS [YGL172W/NUP49] is higher in protein stability index: 2.67 ± 0.039 for the first, 3.08 ± 0.051 for the second.

First: NNSTSNANTVFSERAAM [SWI1]
Second: NNVVINFKDMSHVNKYG [PRP8]
The protein stability index of the first is higher: 3.27 ± 0.097 for the first, 2.6 ± 0.079 for the second.

NPEPNKKNIQKAKSNQT [IRR1] and NPIHVSRHFASYANLPG [FAS1] are within error of each other in protein stability index: 2.43 ± 0.062 for the first, 2.36 ± 0.05 for the second.

NPLIELTPIQKKIMDET [ITC1] and NPNTNTNSNNTPLQSQL [PGD1] are within error of each other in protein stability index: 3.08 ± 0.08 for the first, 2.96 ± 0.066 for the second.

Compared with NPRRLEIKDGRSLFLRN [YMR153W/NUP53], NPSEFTPNMVNSEISNL [SSN2] is lower in protein stability index: 2.9 ± 0.11 for the first, 2.5 ± 0.1 for the second.

NPSVKQGEVGAVFIVPK [SWP82] and NPSYPGMMSTTGTARLN [YJL039C/NUP192] are within error of each other in protein stability index: 3.23 ± 0.15 for the first, 3.1 ± 0.053 for the second.

First: NQASTSKRVYKILSPTM [CDC53]
Second: NQILMSVNFFVSLLKKN [RPL1A]
The protein stability index of the first is higher: 2.57 ± 0.05 for the first, 2.35 ± 0.046 for the second.

Going from NQPHQSQTPSFNTNSSF [YOR098C/NUP1] to NQVGTDELILPLPSHAL [YDL116W/NUP84], the protein stability index rises from 2.99 ± 0.034 to 3.09 ± 0.045.

Compared with NRANVSKDELREKLAEV [RPS24A], NRGVKLEIVYGYALRDV [RPP1] is lower in protein stability index: 3.24 ± 0.11 for the first, 2.64 ± 0.077 for the second.

Going from NRRLFKKCIDFFEMLIS [RRI2] to NRRWTQRRGPLVVYAED [RPL4A], the protein stability index rises from 2.05 ± 0.045 to 2.48 ± 0.17.

First: NRTFTDPPFRIEEQGWG [TAF14]
Second: NSAIANEQEEKSEEVKA [RPC37]
The protein stability index of the first is higher: 3.24 ± 0.057 for the first, 2.79 ± 0.11 for the second.

NSITSGGLKSCDLDFPL [YDL116W/NUP84] and NSKNDSANVELFKRDCN [YCS4] are within error of each other in protein stability index: 3.11 ± 0.068 for the first, 3.05 ± 0.089 for the second.

First: NSLIEEINERSETQTKD [YCG1]
Second: NSSKPAFSFGAKSNEDK [YJL041W/NSP1]
The protein stability index of the first is higher: 3.33 ± 0.12 for the first, 3.13 ± 0.056 for the second.

Compared with NSSNYAELFNNDIKLFV [PRP8], NSSVGNKTDAQAPTTGF [YJL041W/NSP1] is higher in protein stability index: 2.48 ± 0.036 for the first, 3.15 ± 0.056 for the second.

Compared with NSTLKKVESQETLNDTI [YCS4], NSWFDVTWRTFTGDFLR [FAS1] is lower in protein stability index: 2.43 ± 0.092 for the first, 1.93 ± 0.093 for the second.

Compared with NSYQPSPFFVLDEVDAA [SMC1], NTATNALRPSDIFGANA [YOR098C/NUP1] is higher in protein stability index: 2.57 ± 0.12 for the first, 3.24 ± 0.074 for the second.

Going from NTCTISTSKFESQYPIV [SWP82] to NTEGSVVYEDSLELEKV [SNF2], the protein stability index rises from 2.67 ± 0.11 to 2.94 ± 0.062.

Going from NTFVTRLNNVFVIGEQG [RPS4A] to NTKEEFAAAPNDTSSGT [SNF5], the protein stability index rises from 2.89 ± 0.09 to 3.06 ± 0.062.

Compared with NTLEFIIEQLSIAAERY [YCG1], NTLLISGPFKVNGVPLR [RPL6A] is lower in protein stability index: 2.62 ± 0.072 for the first, 2.36 ± 0.059 for the second.

NTLYTAIITDDLDTVLK [SRP72] gave a protein stability index of 2.5 ± 0.031.
